The data set relates to MS2 coat protein. As to the kind of experiment: apparent KD of MS2 coat protein; designed switch direction (-1 OFF switch, 1 ON switch): -1; higher = weaker reporter binding. In a few lines: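 Stalled E. coli RNA polymerase transcribed designed RNA switches on Illumina chips, which were then titrated with SNAP-549-labelled MS2 coat protein, doubling from 0.7 or 1.5 nM to 3 µM. Steps lasted from 0.8–1.5 h at the lowest concentration to 10–20 min at the highest. The apparent KD is each design's median over clusters of curve-fitted normalised fluorescence.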

Setting [1] is: input ligand: microRNA oligo, concentration not stated.
[2] abbreviates: Eterna round: R95, input ligand: microRNA oligo, concentration not stated.

The text below walks through data of the supplement of paper PMC9170038.

“UAUAUAUAGUAAGGAUAUGUAUUUAUAUUAUAAACAGAAGGUACUGACAUGAGGAUCACCCAUGUUUUAGUGUGGGCAUGUAGA [JMF's solution 15] (Eterna round: R96, puzzle: Exclusion NG 1)”: under setting [1], the “apparent KD of MS2 coat protein” value amounted to 66.6 nM.

With “UAUAUAUAGUAAGGAUAUGUAUUUAUUUUAUCAACAGAAGGUACUGACAUGAGGAUCACCCAUGUUUUAGUGUGGGCAUGUAGA [JMF's solution 26] (Eterna round: R96, puzzle: Exclusion NG 1)”, the “apparent KD of MS2 coat protein” value (input ligand: FMN 200 uM) stood at 155 nM, the “apparent KD of MS2 coat protein” value under setting [1] came out at 69.7 nM and the “apparent KD of MS2 coat protein” value (input ligand: none) stood at 85.7 nM.

Consider “UAUAUGUCAGGAUAUCGAUUAGUACGGGAUUCGGUACUGGUUGAGAAGGGACAUGAGGAUCACCCAUGUUUUUC [EX4 #69] (Eterna round: R97, puzzle: Exclusion 4)”, for which the “apparent KD of MS2 coat protein” value is, setting by setting: (input ligand: FMN 200 uM) 284 nM; (input ligand: none) 36.5 nM.

With “UAUAUGUCAGGAUAUCGAUUGGAACAGAAUUUAACAAUGGUCGAGAAGGGACAUGAGGAUCACCCAUGUUCAAC [JR_Ex4_Sub020] (Eterna round: R97, puzzle: Exclusion 4)”, the “apparent KD of MS2 coat protein” value is, setting by setting: (input ligand: FMN 200 uM) 27.3 nM; (input ligand: none) 21.9 nM.

Take “UAUAUGUGAGGAUAUCAGGUGUGCUAGCGUACUGGUACAUCUGAGAAGGCACAUGAGGAUCACCCAUGUUUCUU [JL-ex4-3.24 Brourd mod] (puzzle: Exclusion 4)”: the “apparent KD of MS2 coat protein” value under setting [2] came to 24.4 nM.

As to “UAUCGGGACUGAGGAUAUUCGUUCGAACACGAAGAAGAAGGUAGUGUCAGGGACAUGAGGAUCACCCAUGUGAACUCAGUCCUA [JL ViennaUCT Erinle mod] (Eterna round: R96, puzzle: Exclusion NG 1)”, the “apparent KD of MS2 coat protein” value by setting is: (input ligand: FMN 200 uM) 38.3 nM; under setting [1], 33.7 nM; (input ligand: none) 38.3 nM.

Regarding “UAUGACUGAGGAUAUUGUACUGCUGACAUGAGGAUCACCCAUGUAUGCUAACUCGGCCGUCGAGAAGGCAGUUAUG [BotMod 26 - Jieux - Exclusion 5] (Eterna round: R97, puzzle: Exclusion 5)”, the “apparent KD of MS2 coat protein” value (input ligand: FMN 200 uM) came out at 16.5 nM and the “apparent KD of MS2 coat protein” value (input ligand: none) was determined as 52 nM.

For “UAUGGUUAAGUCAGGAUAUGCACGCAGAGAACAAAGCAGAAGGGACAUGAGGAUCACCCAUGUAAAGUCGUGUU [Ex4 #77] (Eterna round: R97, puzzle: Brourd's mod of Exclusion 4)”, the “apparent KD of MS2 coat protein” value is 31.2 nM (input ligand: FMN 200 uM) and 23 nM (input ligand: none).

As to “UAUGGUUAAGUCAGGAUAUGCUCGUAGUGGUCUAUGCAGAAGGGACAUGAGGAUCACCCAUGUAUGGUCGUGUU [Ex4 #68] (Eterna round: R97, puzzle: Brourd's mod of Exclusion 4)”, the “apparent KD of MS2 coat protein” value turned out to be 119 nM (input ligand: FMN 200 uM) and 106 nM (input ligand: none).

Take “UAUGUUGUUGUGAGGAUAUACUUAGUUUGACCGUAGUAGAAGGCACAUGAGGAUCACCCAUGUAGAUGCUUGGU [JR_BME4_Sub006] (puzzle: Brourd's mod of Exclusion 4)”: the “apparent KD of MS2 coat protein” value under setting [2] stood at 5.53 nM.

With “UAUGUUGUUGUGAGGAUAUACUUUGUUUGGUCGUAGUAGAAGGCACAUGAGGAUCACCCAUGUAGAUUUUUGGU [JR_BME4_Sub009] (puzzle: Brourd's mod of Exclusion 4)”, under setting [2], the “apparent KD of MS2 coat protein” value was 20 nM.

“UAUUAACAAGCUAGAUCUUACAUGAGGAUCACCCAUGUGCUCGUCUUAUAAGGUACUGUGACGAAAGUCACGGUACC [Sensor 3, v1 - 77] (puzzle: Sensor v3, turn-off variant 1)”: the “apparent KD of MS2 coat protein” value was 22.7 nM (Eterna round: R95, input ligand: FMN 200 uM); 149 nM under setting [2]; 22.5 nM (Eterna round: R95, input ligand: none).

With “UAUUAGCAAGCGAGAUCCCACAUGAGGAUCACCCAUGUGCUCGUCUUAUAAAAGACUGUGACGAAAGUCACGGUCAC [Mat - Sensor, turn-off var - Eli Mod - D21] (Eterna round: R97, puzzle: Sensor, turn-off variant 1)”, the “apparent KD of MS2 coat protein” value reads like this: (input ligand: FMN 200 uM) 14.6 nM; (input ligand: none) 15.7 nM.
